# Substitutions are numbered along the chain they refer to.
# B1: biotinylated Fab A6 (Fab, V domains shown)
# VH: EVQLVQSGAEVKKPGASVKVSCKASGYTFTSYYMHWVRQSPGQGLEWMGIINPSGGSTSYAQKFQGRVTMTRDTSTSTVYMELSSLRSEDTAVYYCARNGYCSSTSCYDAFDIWGQGTMVTVSS
# VL: QSALTQPASVSGSPGQSITISCTGTSSDVGGYNYVSWYQQHPGKAPKVLIYDVNQRISGVPDRFSGSKSGNTASLTISGLQAEDEADYYCCSYAGSSSWVFGGGTRLTVL
# notes: source: E. coli TG1, biotinylated in vivo, purified (IMAC, Talon beads)
# B2: Fab A6 tetramer (Fab, V domains shown)
# VH: B1 VH
# VL: B1 VL
# notes: copies: 4 + 4
# B3: biotinylated Fab F3 (Fab, V domains shown)
# VH: QVQLVQSGAEVKKPGASVKVSCKASGYTFTSYYMHWVRQAPGQGLEWMGIINPSGGSTSYAQKFQGRVTMTRDTSTSTVYMELSSLRSEDTAVYYCASGITGAHDYWGQGTLVTVSS
# VL: QSVVTQPPSVSGAPGQRVTISCTGSSSNIGAGYDVHWYQQLPGTAPKLLIYENSIRPSGVPDRFSGSKSGTAASLAITGLQAEDEAEYYCQSYDNSLSGPNWVFGGGTKLTVL
# notes: as for B1
# B4: Fab F3 tetramer (Fab, V domains shown)
# VH: B3 VH
# VL: B3 VL
# notes: copies: 4 + 4
# B5: biotinylated Fab A11 (Fab, V domains shown)
# VH: EVQLVQSGAEVKRPGASVKVSCKASGYTFTSYGIGWVRQAPGQGLEWMGWISAYSGNTNYAQNFQGRITMTTDTSTSTAYMELRSLRSDDTAVYYCARDFGKWDLPMYGMDVWGQGTTVTVSS
# VL: QSVLTQPPSVSVAPGGTARISCGGNNIGTKNVHWYQQKPGQAPVLVMYYNSDRPAGIPERFSGSNSGNTATLTITRVEPGDEADYYCQVWDDRRDHYVFGTGTEVTVL
# notes: as for B1
# B6: biotinylated Fab A9 (Fab, V domains shown)
# VH: B5 VH with K12R, R13N, Y32H, G35N, V37L, F64L, G66D, I68V, T69S
# VL: QSVLTQPPSVSAAPGQRVTISCSGSSSDIGKSGKNYVAWYQQLPGMAPKLLIHDTIKRPSGIPDRFSASKSGTSATLDITGLQTGDEGDYYCGTWNNNLSAYVFGTGTTITVL
# notes: as for B1
# B7: Fab C1 tetramer (Fab, V domains shown)
# VH: EVQLVQSGAEVKKPGSSVKVSCKASGGTFSSYAISWVRQAPGQGLEWMGGIIPIFGTANYAQKFQGRVTITADESTSTAYMELSSLRSEDTAVYYCARGLAAPDYFDYWGQGTLVTVSS
# VL: B3 VL with E52G, I55N, A72S, E87D, N95S, N101F, W102Y, G106T, L110V
# notes: copies: 4 + 4
# B8: biotinylated Fab C1 (Fab, V domains shown)
# VH: B7 VH
# VL: B3 VL with E52G, I55N, A72S, E87D, N95S, N101F, W102Y, G106T, L110V
# notes: as for B1
# B9: biotinylated Fab C7 (Fab, V domains shown)
# VH: EVQLVQSGAEVKKPGASVKVSCKASGYTFTSYYMHWVRQAPGQGLEWMGIINPSDGSTSYAQKFQGRVTMTRDTSTSTAYMELSSLRSEDTAVYYCARYIGIMDVWGQGTTVTVSS
# VL: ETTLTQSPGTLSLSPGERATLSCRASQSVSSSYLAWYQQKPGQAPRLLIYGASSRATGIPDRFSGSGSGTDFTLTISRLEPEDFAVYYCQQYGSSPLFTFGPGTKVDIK
# notes: as for B1
# Biological target: T1, HLA A*0101 presenting HCMV pp65 peptide […] on cells (human HLA-A*01:01 and B2M; HCMV pp65 …, strain)
# T1 construct: copies: + +
# Assay: flow cytometry on cells
# Details: one partner purified
row,Binder,binding result
1,B1,binds
2,B2,binds
3,B3,binds
4,B4,binds

# Biological target: T2, HLA A*0201 presenting HCMV pp65 peptide […] on cells (human HLA-A*02:01 and B2M; HCMV pp65 …, strain)
# T2 construct: copies: + +
# Assay: flow cytometry on cells
# Details: one partner purified
row,Binder,binding result
1,B5,binds
2,B6,binds
3,B7,binds
4,B8,binds

# Biological target: T3, HLA B*0702 presenting HCMV pp65 peptide … on cells (Homo sapiens HLA-B*07:02/B2M; HCMV pp65 …, strain)
# T3 construct: copies: + +
# Assay: flow cytometry on cells
# Details: one partner purified
row,Binder,binding result
1,B9,binds
